We go through 42 molecules from PMC10681739, “High-throughput data and modeling reveal insights into the mechanisms of cooperative DNA-binding by transcription factor proteins”.

The data set deals with RUNX1 (Homo sapiens, UniProt Q01196). Put plainly: gcPBM; 2 nM RUNX1. Conditions: tags: N-terminal GST (pDEST15), kept (PMC6008103); label: surface-attached array probe.
Chain of RUNX1 (Q01196 whole entry): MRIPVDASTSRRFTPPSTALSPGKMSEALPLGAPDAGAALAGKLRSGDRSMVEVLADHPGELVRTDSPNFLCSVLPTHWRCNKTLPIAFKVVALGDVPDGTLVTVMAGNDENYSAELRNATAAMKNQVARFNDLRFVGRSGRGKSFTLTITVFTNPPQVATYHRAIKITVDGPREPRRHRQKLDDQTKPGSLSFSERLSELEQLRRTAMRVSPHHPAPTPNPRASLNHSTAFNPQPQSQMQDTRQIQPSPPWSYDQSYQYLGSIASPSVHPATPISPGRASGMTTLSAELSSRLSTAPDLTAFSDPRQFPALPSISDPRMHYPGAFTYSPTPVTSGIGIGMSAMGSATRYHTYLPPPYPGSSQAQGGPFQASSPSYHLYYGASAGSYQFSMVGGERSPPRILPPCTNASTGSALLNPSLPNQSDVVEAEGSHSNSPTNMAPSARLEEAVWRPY

B1: Table S3 B row 943 (dsDNA)
DNA 1: TGTTTGCGGTTTAGACCCCAAAGATTCATGTTGGTA
DNA 2: TACCAACATGAATCTTTGGGGTCTAAACCGCAAACA
With B1, the binding signal is 38700 PBM fluorescence, median of replicate spots.

B2: Table S3 B row 226 (dsDNA)
DNA 1: TTTCTTTCTGTGGTTTATCCTTATTTGCTGGCTTCG
DNA 2: CGAAGCCAGCAAATAAGGATAAACCACAGAAAGAAA
With B2, the binding signal was 12500 PBM fluorescence, median of replicate spots.

B3: Table S3 B row 3040 (dsDNA)
DNA 1: GCCTTTTGTGGTTTGTACCACTGCCTGCCTTTTCTG
DNA 2: CAGAAAAGGCAGGCAGTGGTACAAACCACAAAAGGC
Take B3: the binding signal is 17300 PBM fluorescence, median of replicate spots.

B4: Table S3 B row 3458 (dsDNA)
DNA 1: CTGATTGTGGTTTTGATTTGCAATTCCCTGATGATT
DNA 2: AATCATCAGGGAATTGCAAATCAAAACCACAATCAG
For B4, the binding signal is 25900 PBM fluorescence, median of replicate spots.

B5: Table S3 B row 278 (dsDNA)
DNA 1: TAAGTGTTGTGGTTTTTTAGTTTACTGTTCAGTTGC
DNA 2: GCAACTGAACAGTAAACTAAAAAACCACAACACTTA
For the molecule B5, the binding signal is 20300 PBM fluorescence, median of replicate spots.

B6: Table S3 B row 1695 (dsDNA)
DNA 1: GCACAAAACCGCACAAACAGCCTGAAGCACAGCCCC
DNA 2: GGGGCTGTGCTTCAGGCTGTTTGTGCGGTTTTGTGC
For B6, the binding signal is 16300 PBM fluorescence, median of replicate spots.

B7: Table S3 B row 2601 (dsDNA)
DNA 1: CTGCTTGTGGTTTTGGTCTGCAGCAAGCTGGGCTGC
DNA 2: GCAGCCCAGCTTGCTGCAGACCAAAACCACAAGCAG
Consider B7, for which the binding signal is 14600 PBM fluorescence, median of replicate spots.

B8: Table S3 B row 3806 (dsDNA)
DNA 1: TCAGTCTTGTGGTTAAGGGAGGCAGGGTACTGTTGG
DNA 2: CCAACAGTACCCTGCCTCCCTTAACCACAAGACTGA
Turning to B8, the binding signal is 20500 PBM fluorescence, median of replicate spots.

B9: Table S3 B row 3235 (dsDNA)
DNA 1: AAGTCAAAACCGCAAACGCTCAGTAAAAAAGACTCT
DNA 2: AGAGTCTTTTTTACTGAGCGTTTGCGGTTTTGACTT
For B9, the binding signal was 42400 PBM fluorescence, median of replicate spots.

B10: Table S3 B row 3420 (dsDNA)
DNA 1: GGTTTGTGGTTTCCCCTTACTGTCTCCACTGCCTTC
DNA 2: GAAGGCAGTGGAGACAGTAAGGGGAAACCACAAACC
As for B10, the binding signal was 28800 PBM fluorescence, median of replicate spots.

B11: Table S3 B row 3447 (dsDNA)
DNA 1: TGATTGCGGTTTCGGTCGCTCTCCCGTGTTTGCCGG
DNA 2: CCGGCAAACACGGGAGAGCGACCGAAACCGCAATCA
Turning to B11, the binding signal was 50800 PBM fluorescence, median of replicate spots.

B12: Table S3 B row 48 (dsDNA)
DNA 1: CCTGCTGCGGTCAGCCCTGTCTCTTTCTGTTTCTGC
DNA 2: GCAGAAACAGAAAGAGACAGGGCTGACCGCAGCAGG
Regarding B12, the binding signal is 16100 PBM fluorescence, median of replicate spots.

B13: Table S3 B row 1798 (dsDNA)
DNA 1: CTCTCTTGCGGTTTGCAGCCAGATCACCTCCCATAC
DNA 2: GTATGGGAGGTGATCTGGCTGCAAACCGCAAGAGAG
As for B13, the binding signal is 37400 PBM fluorescence, median of replicate spots.

B14: Table S3 B row 1768 (dsDNA)
DNA 1: TGGTTGTGGTTTGGAGATTCTGATGTCATTTGCTGT
DNA 2: ACAGCAAATGACATCAGAATCTCCAAACCACAACCA
As for B14, the binding signal was 18000 PBM fluorescence, median of replicate spots.

B15: Table S3 B row 3965 (dsDNA)
DNA 1: GGAGAAACCGCAACTCGGAACTACGGGAACGGAGGA
DNA 2: TCCTCCGTTCCCGTAGTTCCGAGTTGCGGTTTCTCC
For the molecule B15, the binding signal is 26700 PBM fluorescence, median of replicate spots.

B16: Table S3 B row 3051 (dsDNA)
DNA 1: GGCTTGTGGTTTGGTGATTGTACGTCCTTATTGATA
DNA 2: TATCAATAAGGACGTACAATCACCAAACCACAAGCC
In the case of B16, the binding signal was 13000 PBM fluorescence, median of replicate spots.

B17: Table S3 B row 3390 (dsDNA)
DNA 1: TTTCATATTTGTGGTTTTGGTGTTGCCTCTTACACA
DNA 2: TGTGTAAGAGGCAACACCAAAACCACAAATATGAAA
Take B17: the binding signal is 18800 PBM fluorescence, median of replicate spots.

B18: Table S3 B row 320 (dsDNA)
DNA 1: AGAAACCACAAAACCCCATTTGAAATTCAGCCGTGC
DNA 2: GCACGGCTGAATTTCAAATGGGGTTTTGTGGTTTCT
Consider B18, for which the binding signal was 15200 PBM fluorescence, median of replicate spots.

B19: Table S3 B row 2036 (dsDNA)
DNA 1: GATTGCGGTTGGGACTTTCCCTAAGTCATTTGCTGT
DNA 2: ACAGCAAATGACTTAGGGAAAGTCCCAACCGCAATC
For the molecule B19, the binding signal is 53200 PBM fluorescence, median of replicate spots.

B20: Table S3 B row 2332 (dsDNA)
DNA 1: TGTCAAAGTTTGTGGTGAGTGGCTTGCTGGAGACCC
DNA 2: GGGTCTCCAGCAAGCCACTCACCACAAACTTTGACA
In the case of B20, the binding signal was 13400 PBM fluorescence, median of replicate spots.

B21: Table S3 B row 1072 (dsDNA)
DNA 1: CTTCTTCTTGCGGTTTCAATCACAGTAAACAGACGT
DNA 2: ACGTCTGTTTACTGTGATTGAAACCGCAAGAAGAAG
Consider B21, for which the binding signal was 27500 PBM fluorescence, median of replicate spots.

B22: Table S3 B row 1477 (dsDNA)
DNA 1: TTCTTTGGTCAACCGCAAGCCTCTGCCGCGTCTCGC
DNA 2: GCGAGACGCGGCAGAGGCTTGCGGTTGACCAAAGAA
For B22, the binding signal is 37300 PBM fluorescence, median of replicate spots.

B23: Table S3 B row 2433 (dsDNA)
DNA 1: GGGTTTTGTGGTTAGCAAGTTCCAGCTCCCGTCGCA
DNA 2: TGCGACGGGAGCTGGAACTTGCTAACCACAAAACCC
Take B23: the binding signal was 18900 PBM fluorescence, median of replicate spots.

B24: Table S3 B row 1191 (dsDNA)
DNA 1: CTCTTGCGGTCAGGTCACGCCGCCTGAAGCCGCCCC
DNA 2: GGGGCGGCTTCAGGCGGCGTGACCTGACCGCAAGAG
On to B24, for which the binding signal is 30900 PBM fluorescence, median of replicate spots.

B25: Table S3 B row 2269 (dsDNA)
DNA 1: ACTGTTATTGTGGTTTTTGGGGACTGCCTCTTTGTC
DNA 2: GACAAAGAGGCAGTCCCCAAAAACCACAATAACAGT
Regarding B25, the binding signal was 12500 PBM fluorescence, median of replicate spots.

B26: Table S3 B row 741 (dsDNA)
DNA 1: CTTAAAACCACAACACAATAACACCAGAGGACATGA
DNA 2: TCATGTCCTCTGGTGTTATTGTGTTGTGGTTTTAAG
In the case of B26, the binding signal was 14300 PBM fluorescence, median of replicate spots.

B27: Table S3 B row 272 (dsDNA)
DNA 1: ACGAGGTTGCGGTTTCTCCACCTCCTCAACAACCTG
DNA 2: CAGGTTGTTGAGGAGGTGGAGAAACCGCAACCTCGT
For B27, the binding signal is 32700 PBM fluorescence, median of replicate spots.

B28: Table S3 B row 1134 (dsDNA)
DNA 1: GTTAAGCTGCGGTCAGACCTAAGGGAGGATCTGGCT
DNA 2: AGCCAGATCCTCCCTTAGGTCTGACCGCAGCTTAAC
Turning to B28, the binding signal was 17500 PBM fluorescence, median of replicate spots.

B29: Table S3 B row 3657 (dsDNA)
DNA 1: CCACCCAAAACCACAACCATTTGCCCCATCACTTTG
DNA 2: CAAAGTGATGGGGCAAATGGTTGTGGTTTTGGGTGG
For the molecule B29, the binding signal is 31700 PBM fluorescence, median of replicate spots.

B30: Table S3 B row 3344 (dsDNA)
DNA 1: CCGAAGCCTGCGGTTTCATGTGGGAGCAAGCGGCCT
DNA 2: AGGCCGCTTGCTCCCACATGAAACCGCAGGCTTCGG
B30: the binding signal was 37500 PBM fluorescence, median of replicate spots.

B31: Table S3 B row 852 (dsDNA)
DNA 1: CGGCAGCTTGCGGTTAGCCGTTCTTTCAGCCCAGTT
DNA 2: AACTGGGCTGAAAGAACGGCTAACCGCAAGCTGCCG
B31: the binding signal is 48900 PBM fluorescence, median of replicate spots.

B32: Table S3 B row 2604 (dsDNA)
DNA 1: CGGGTTAAACCGCAGCCGCGCCCACACTTTCGGGGT
DNA 2: ACCCCGAAAGTGTGGGCGCGGCTGCGGTTTAACCCG
Take B32: the binding signal was 28100 PBM fluorescence, median of replicate spots.

B33: Table S3 B row 1801 (dsDNA)
DNA 1: ACTCTAACCGCAGTGACGTGGGACCTCCTCGGCAGG
DNA 2: CCTGCCGAGGAGGTCCCACGTCACTGCGGTTAGAGT
Consider B33, for which the binding signal is 46700 PBM fluorescence, median of replicate spots.

B34: Table S3 B row 158 (dsDNA)
DNA 1: GTCTCAACCGCAAGGAGGTGTTACGTCCTCTTTTAC
DNA 2: GTAAAAGAGGACGTAACACCTCCTTGCGGTTGAGAC
As to B34, the binding signal is 12800 PBM fluorescence, median of replicate spots.

B35: Table S3 B row 531 (dsDNA)
DNA 1: ATAGCTTGTGGTTTATGGGTCAGCAAGTTGAGGGTG
DNA 2: CACCCTCAACTTGCTGACCCATAAACCACAAGCTAT
As for B35, the binding signal is 13900 PBM fluorescence, median of replicate spots.

B36: Table S3 B row 2934 (dsDNA)
DNA 1: TTTTTGTGGTTTAGCCCTCAGAGCTCCCTGCCAGAG
DNA 2: CTCTGGCAGGGAGCTCTGAGGGCTAAACCACAAAAA
For the molecule B36, the binding signal is 23200 PBM fluorescence, median of replicate spots.

B37: Table S3 B row 474 (dsDNA)
DNA 1: TCGTATTTGCGGTCAGCCTCTTACGTAATGTGCTTG
DNA 2: CAAGCACATTACGTAAGAGGCTGACCGCAAATACGA
Regarding B37, the binding signal is 29200 PBM fluorescence, median of replicate spots.

B38: Table S3 B row 2222 (dsDNA)
DNA 1: CAGAAACCGCAGAACTGAGCTGACGACCCGGGAGTG
DNA 2: CACTCCCGGGTCGTCAGCTCAGTTCTGCGGTTTCTG
For the molecule B38, the binding signal is 42300 PBM fluorescence, median of replicate spots.

B39: Table S3 B row 2218 (dsDNA)
DNA 1: TCCTTGCGGTTTGCTTTCGCCGTCTCCGAACCGAGG
DNA 2: CCTCGGTTCGGAGACGGCGAAAGCAAACCGCAAGGA
B39: the binding signal was 30700 PBM fluorescence, median of replicate spots.

B40: Table S3 B row 1866 (dsDNA)
DNA 1: TCTGCGGTCAGCTGACTGTGCCAGAGTGCCGCGGGG
DNA 2: CCCCGCGGCACTCTGGCACAGTCAGCTGACCGCAGA
For B40, the binding signal was 16100 PBM fluorescence, median of replicate spots.

B41: Table S3 B row 1506 (dsDNA)
DNA 1: GTTCCTGGTTTGTGGTTATGATTTGCTGTTTGCCTT
DNA 2: AAGGCAAACAGCAAATCATAACCACAAACCAGGAAC
For the molecule B41, the binding signal is 24200 PBM fluorescence, median of replicate spots.

B42: Table S3 B row 584 (dsDNA)
DNA 1: GTCCTCTTTGTGGTTTCCATTTGCTTTGTGAAAGAG
DNA 2: CTCTTTCACAAAGCAAATGGAAACCACAAAGAGGAC
Regarding B42, the binding signal was 34700 PBM fluorescence, median of replicate spots.
